From patent US20170145104A1 (Bristol-Myers Squibb, published 2017)

T1: human GITR, membrane bound (on activated human T cells and on 3A9-hGITR cells) (human, UniProt Q9Y5U5 26-241)
T1 construct: whole, on cells; the cell is named under assay; also called huGITR; TNFRSF18
T1 sequence (looked up): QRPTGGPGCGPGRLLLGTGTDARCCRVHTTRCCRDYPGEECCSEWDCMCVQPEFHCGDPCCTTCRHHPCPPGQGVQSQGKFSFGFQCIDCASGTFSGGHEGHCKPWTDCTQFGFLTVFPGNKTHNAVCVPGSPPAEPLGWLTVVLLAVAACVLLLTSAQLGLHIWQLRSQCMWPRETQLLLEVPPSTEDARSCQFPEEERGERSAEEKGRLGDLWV

T2: cynomolgus GITR on activated cynomolgus T cells (cynomolgus, UniProt Q9Y5U5 26-241 (human entry))
T2 construct: also called cyno GITR
T2 chain: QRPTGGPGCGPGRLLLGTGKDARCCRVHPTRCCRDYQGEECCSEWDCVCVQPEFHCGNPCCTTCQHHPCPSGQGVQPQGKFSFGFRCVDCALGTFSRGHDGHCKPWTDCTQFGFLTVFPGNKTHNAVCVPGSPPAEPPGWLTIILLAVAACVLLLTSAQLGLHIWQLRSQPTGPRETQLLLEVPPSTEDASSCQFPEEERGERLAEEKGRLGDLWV


Tests used:
[1] = target: T1, human GITR, membrane bound (on …); experiment: FACS, activated human T cells (anti-CD3/anti-CD28), PE anti-human IgG
Experimental: (§1) Peripheral Blood Mononuclear Cells (PBMCs) isolated from human or cynomolgus monkey were activated with plate-coated anti-CD3 antibody (Clone: UCHT1 for human T cell activation; Clone: SP34 for cynomolgus T cell activation; both from BD Biosciences) and soluble anti-CD28 antibody (Clone:CD28.2 for both human and cynomolgus monkey, BD Biosciences) for 4 days (human)/or 5 days (cynomolgus monkey). The cells were tested for GITR mAb binding in a fluorescence-activated cell sorting (FACS)-based assay using a phycoerythrin (PE)-conjugated anti-human IgG antibody (Jackson ImmunoResearch). The samples were analyzed on a BD FACS Canto Flow Cytometer.

[2] = target: T1, human GITR, membrane bound (on …); experiment: FACS blocking assay on GITR-3A9 cells with GITR-L, plotted as % inhibition. The table prints no unit, so ug/mL is taken from the axis 'Conc (ug/mL)'.
[3] = target: T2, cynomolgus GITR on activated cynomolgus …; experiment: FACS on activated cynomolgus T cells, PE anti-human IgG. The EC50 table prints no unit, so nM is taken from the axis 'Concentration (nM)'. The 3C3 curve itself is flat, see non_binding.
Experimental: as §1

[4] = target: T1, human GITR, membrane bound (on …); experiment: FACS blocking assay on GITR-3A9 cells: antibody titrated first, then GITR-L, bound GITR-L read as GMFI (PE). The table prints no unit, so ug/mL is taken from the axis 'Conc (ug/mL)'.
[5] = target: T2, cynomolgus GITR on activated cynomolgus …; experiment: FACS, activated cynomolgus T cells (anti-CD3/anti-CD28), PE anti-human IgG
Experimental: as §1

[6] = target: T1, human GITR, membrane bound (on …); experiment: FACS binding to 3A9-hGITR transfectant, Geo-MFI (PE); EC50 table beside the curves; unit from the axis
[7] = target: T1, human GITR, membrane bound (on …); experiment: FACS binding to 3A9-hGITR transfectant, Geo-MFI (PE); EC50 table beside the curves; unit from the axis; the lowest curve (small diamonds) reaches only about 40 Geo-MFI at the top concentration

Binder | EC50 [6] [µM] | other results
3C3 (antibody, human IgG1, kappa, V domains shown, Hybridoma-derived human antibody; also called GITR.3; 3C3-1) VH: QVQLQQWGAGLLKPSETLSLTCAVYGGSFSGYYWTWIRQPPGKGLEWIGKINHSGNTNYNPSLKSRVTISVDTSKNQFSLKLSSVTAADTAVYYCARLGAFDAFDIWGQGTMVTVSS VL: DIQMTQSPSSLSASVGDRVTITCRASQGISSWLAWYQQKPEKAPKSLIYAASSLQSGVPSRFSGSGSGTDFTLTISSLQPEDFATYYCQQYNSYPYTFGQGTKLEIKR |  | EC50 [1]: 0.0492 nM; EC50 [2]: 0.0693 µg/mL; EC50 [3]: 0.142 µM; EC50 [4]: 0.0693 µg/mL
19D3 (antibody, human IgG2, kappa, V domains shown, Hybridoma-derived human antibody; also called 19D3-IgG2) VH: QVQLVESGGGVVQPGRSLRLSCAASGFTFSSYGFHWVRQAPGKGLEWVAVIWYAGSNKFYADSVKGRFTISRDNSKNTLYLQMNSLRAEDTAVYYCARGGQLDYYYYYVMDVWGQGTTVTVSS VL: DIQMTQSPSSLSASVGDRVTITCRASQGISSWLAWYQQKPEKAPKSLIYAASSLQSGVPSRFSGSGSGTDFTLTISSLQPEDFATYYCQQYNSYPYTFGQGTKLEIKR |  | EC50 [1]: 0.363 nM; EC50 [2]: 0.755 µg/mL; EC50 [4]: 0.755 µg/mL
18E10 (antibody, human IgG2, kappa, V domains shown, Hybridoma-derived human antibody; also called 18E10-IgG2) VH: QVQLVESGGGVVQPGRSLRLSCAASGFTFSSYGMHWVRQAPGKGLEWVAVIWYAGSNKYYADSVKGRFTISRDNSKNTLYLQMNSLRAEDTAVYYCARGGRIAVAFYYSMDVWGQGTTVTVSS VL: DIQMTQSPSSLSASVGDRVTITCRASQGISSWLAWYQQKPEKAPKSLIYAASSLQSGVPSRFSGSGSGTDFTLTISSLQPEDFATYYCQQYNSYPYTFGQGTKLEIKR |  | EC50 [1]: 0.146 nM; EC50 [5]: 0.000913 µM
28F3 VH CDR3 mutant M98Q (antibody, V domains shown, also called D6) VH: QVQLVESGGGVVQPGRSLRLSCAASGFTFSSYGMHWVRQAPGKGLEWVAVIWYEGSNKYYADSVKGRFTISRDNSKNTLYLQMNSLRAEDTAVYYCARGGSQVRGDYYYGMDVWGQGTTVTVSS VL: AIQLTQSPSSLSASVGDRVTITCRASQGISSALAWYQQKPGKAPKLLIYDASSLESGVPSRFSGSGSGTDFTLTISSLQPEDFATYYCQQFNSYPYTFGQGTKLEIK | 0.00144 | 
28F3 VH CDR3 mutant M98S, D106E (antibody, V domains shown, also called E5) VH: QVQLVESGGGVVQPGRSLRLSCAASGFTFSSYGMHWVRQAPGKGLEWVAVIWYEGSNKYYADSVKGRFTISRDNSKNTLYLQMNSLRAEDTAVYYCARGGSSVRGEYYYGMDVWGQGTTVTVSS VL: AIQLTQSPSSLSASVGDRVTITCRASQGISSALAWYQQKPGKAPKLLIYDASSLESGVPSRFSGSGSGTDFTLTISSLQPEDFATYYCQQFNSYPYTFGQGTKLEIK | 0.00229 | 
28F3 VH CDR3 mutant M98V, D106E (antibody, V domains shown, also called H4) VH: QVQLVESGGGVVQPGRSLRLSCAASGFTFSSYGMHWVRQAPGKGLEWVAVIWYEGSNKYYADSVKGRFTISRDNSKNTLYLQMNSLRAEDTAVYYCARGGSVVRGEYYYGMDVWGQGTTVTVSS VL: AIQLTQSPSSLSASVGDRVTITCRASQGISSALAWYQQKPGKAPKLLIYDASSLESGVPSRFSGSGSGTDFTLTISSLQPEDFATYYCQQFNSYPYTFGQGTKLEIK | 0.00058 | 
28F3 VH CDR3 mutant M98Q, D106E (antibody, V domains shown, also called D5) VH: QVQLVESGGGVVQPGRSLRLSCAASGFTFSSYGMHWVRQAPGKGLEWVAVIWYEGSNKYYADSVKGRFTISRDNSKNTLYLQMNSLRAEDTAVYYCARGGSQVRGEYYYGMDVWGQGTTVTVSS VL: AIQLTQSPSSLSASVGDRVTITCRASQGISSALAWYQQKPGKAPKLLIYDASSLESGVPSRFSGSGSGTDFTLTISSLQPEDFATYYCQQFNSYPYTFGQGTKLEIK | 0.000968 | 
28F3 VH CDR3 mutant M98Y (antibody, V domains shown, also called G6) VH: QVQLVESGGGVVQPGRSLRLSCAASGFTFSSYGMHWVRQAPGKGLEWVAVIWYEGSNKYYADSVKGRFTISRDNSKNTLYLQMNSLRAEDTAVYYCARGGSYVRGDYYYGMDVWGQGTTVTVSS VL: AIQLTQSPSSLSASVGDRVTITCRASQGISSALAWYQQKPGKAPKLLIYDASSLESGVPSRFSGSGSGTDFTLTISSLQPEDFATYYCQQFNSYPYTFGQGTKLEIK | 0.00168 | 
28F3 VH CDR3 mutant M98V (antibody, V domains shown, also called H5) VH: QVQLVESGGGVVQPGRSLRLSCAASGFTFSSYGMHWVRQAPGKGLEWVAVIWYEGSNKYYADSVKGRFTISRDNSKNTLYLQMNSLRAEDTAVYYCARGGSVVRGDYYYGMDVWGQGTTVTVSS VL: AIQLTQSPSSLSASVGDRVTITCRASQGISSALAWYQQKPGKAPKLLIYDASSLESGVPSRFSGSGSGTDFTLTISSLQPEDFATYYCQQFNSYPYTFGQGTKLEIK | 0.00034 | 
28F3 VH CDR3 mutant M98V, D106E, M111F (antibody, V domains shown, also called A4) VH: QVQLVESGGGVVQPGRSLRLSCAASGFTFSSYGMHWVRQAPGKGLEWVAVIWYEGSNKYYADSVKGRFTISRDNSKNTLYLQMNSLRAEDTAVYYCARGGSVVRGEYYYGFDVWGQGTTVTVSS VL: AIQLTQSPSSLSASVGDRVTITCRASQGISSALAWYQQKPGKAPKLLIYDASSLESGVPSRFSGSGSGTDFTLTISSLQPEDFATYYCQQFNSYPYTFGQGTKLEIK | 0.000772 | 
28F3 VH CDR3 mutant M98Y, D106E (antibody, V domains shown, also called G5) VH: QVQLVESGGGVVQPGRSLRLSCAASGFTFSSYGMHWVRQAPGKGLEWVAVIWYEGSNKYYADSVKGRFTISRDNSKNTLYLQMNSLRAEDTAVYYCARGGSYVRGEYYYGMDVWGQGTTVTVSS VL: AIQLTQSPSSLSASVGDRVTITCRASQGISSALAWYQQKPGKAPKLLIYDASSLESGVPSRFSGSGSGTDFTLTISSLQPEDFATYYCQQFNSYPYTFGQGTKLEIK | 0.000798 | 
28F3 VH CDR3 mutant M98Q, D106E, M111F (antibody, V domains shown, also called D4) VH: QVQLVESGGGVVQPGRSLRLSCAASGFTFSSYGMHWVRQAPGKGLEWVAVIWYEGSNKYYADSVKGRFTISRDNSKNTLYLQMNSLRAEDTAVYYCARGGSQVRGEYYYGFDVWGQGTTVTVSS VL: AIQLTQSPSSLSASVGDRVTITCRASQGISSALAWYQQKPGKAPKLLIYDASSLESGVPSRFSGSGSGTDFTLTISSLQPEDFATYYCQQFNSYPYTFGQGTKLEIK | 0.00333 | 
28F3 VH CDR3 mutant M98Y, D106E, M111F (antibody, V domains shown, also called G4) VH: QVQLVESGGGVVQPGRSLRLSCAASGFTFSSYGMHWVRQAPGKGLEWVAVIWYEGSNKYYADSVKGRFTISRDNSKNTLYLQMNSLRAEDTAVYYCARGGSYVRGEYYYGFDVWGQGTTVTVSS VL: AIQLTQSPSSLSASVGDRVTITCRASQGISSALAWYQQKPGKAPKLLIYDASSLESGVPSRFSGSGSGTDFTLTISSLQPEDFATYYCQQFNSYPYTFGQGTKLEIK | 0.045 | 
28F3 VH CDR3 mutant M98S, D106E, M111F (antibody, V domains shown, also called E4) VH: QVQLVESGGGVVQPGRSLRLSCAASGFTFSSYGMHWVRQAPGKGLEWVAVIWYEGSNKYYADSVKGRFTISRDNSKNTLYLQMNSLRAEDTAVYYCARGGSSVRGEYYYGFDVWGQGTTVTVSS VL: AIQLTQSPSSLSASVGDRVTITCRASQGISSALAWYQQKPGKAPKLLIYDASSLESGVPSRFSGSGSGTDFTLTISSLQPEDFATYYCQQFNSYPYTFGQGTKLEIK |  | EC50 [7]: ~38600 µM
28F3 VH CDR3 mutant M98S (antibody, V domains shown, also called E6) VH: QVQLVESGGGVVQPGRSLRLSCAASGFTFSSYGMHWVRQAPGKGLEWVAVIWYEGSNKYYADSVKGRFTISRDNSKNTLYLQMNSLRAEDTAVYYCARGGSSVRGDYYYGMDVWGQGTTVTVSS VL: AIQLTQSPSSLSASVGDRVTITCRASQGISSALAWYQQKPGKAPKLLIYDASSLESGVPSRFSGSGSGTDFTLTISSLQPEDFATYYCQQFNSYPYTFGQGTKLEIK | 0.00351 | 
